Biological target: T1, elastase (type I: derived from porcine pancreas) (Sus scrofa, UniProt P00772)
T1 construct: type I: derived from porcine pancreas; purchased Sigma Aldrich, USA; host or cells: porcine pancreas (tissue-derived)
Test: Elastase inhibition test (p-nitroanilide release, absorbance 410 nm)
Type: biochemical
Conditions: peptides and controls 100 μg/mL; N-succinyl-(L-Ala) 3-p-nitroanilide substrate, 37 °C, 30 minutes
Description: In order to confirm the anti-wrinkle effect of tetrapeptides, a test of inhibiting elastase was performed. The amount of p-nitroanilide produced was measured using N-succinyl-(L-Aal) 3-p-nitroanilide as a substrate at 37 °C for 30 minutes. After adding each of the peptides to be tested and negative and positive controls in an amount of 100 μg/mL into test tube, respectively, a pancreatic solution (type I: derived from porcine pancreas, 0.6 unit/mL, Sigma Aldrich, USA) in an amount of […] was added thereto. Thereafter, a substrate, in which N-succinyl-(L-Ala) 3-p-nitroanilide (1 mg/mL) was dissolved in 50 mM Tris-HCl buffer (pH 8.6), was added in an amount of […] thereto and allowed to react for 30 minutes and the absorbance was measured at 410 nm using a microplate reader. The elastase inhibitory activity was expressed as a decrease rate in absorbance of the groups with and without the addition of the sample solution as shown in Equation 1 below.
After treating the 42 kinds of synthesized peptides, their effects on inhibition of elastase were measured.

T1 sequence (P00772 27-266): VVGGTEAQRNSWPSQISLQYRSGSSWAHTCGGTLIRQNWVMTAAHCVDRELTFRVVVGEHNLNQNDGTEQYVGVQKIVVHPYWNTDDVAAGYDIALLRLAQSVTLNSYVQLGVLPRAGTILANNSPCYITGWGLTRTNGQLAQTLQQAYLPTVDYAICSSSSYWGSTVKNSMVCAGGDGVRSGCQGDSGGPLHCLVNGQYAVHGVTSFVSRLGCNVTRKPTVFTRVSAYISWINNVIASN

Compound | Elastase Inhibition Rate(%)
GCFS (Tetra Peptide) [Sample 20, tetrapeptide] | 55.2
GQDP (Tetra Peptide) [Sample 34, tetrapeptide] | 34.5
GGSG [Sample 18] | 103.5
MSYQ (Tetra Peptide) [Sample 1, tetrapeptide] | 79.4
QKKQ (Tetra Peptide) [Sample 2, tetrapeptide] | 88.7
KHLE (Tetra Peptide) [Sample 28, tetrapeptide] | 79.3
TKGE (Tetra Peptide) [Sample 38, tetrapeptide] | 59.3
QMGQ (Tetra Peptide) [Sample 33, tetrapeptide] | 55.6
ELPE (Tetra Peptide) [Sample 24, tetrapeptide] | 90.5
YLEQ (Tetra Peptide) [Sample 36, tetrapeptide] | 72.3
EGQL (Tetra Peptide) [Sample 30, tetrapeptide] | 69.7
SSGG (Tetra Peptide) [Sample 17, tetrapeptide] | 77.0
SQQV (Tetra Peptide) [Sample 12, tetrapeptide] | 49.3
EHQE (Tetra Peptide) [Sample 29, tetrapeptide] | 66.3
QQKQ (Tetra Peptide) [Sample 41, tetrapeptide] | 72.3
PPVD (Tetra Peptide) [Sample 4, tetrapeptide] | 72.5
GQLE (Tetra Peptide) [Sample 23, tetrapeptide] | 73.2
C[C@H]1[C@H](C)CC[C@]2(C(=O)O)CC[C@]3(C)C(=CC[C@@H]4[C@@]5(C)CCC(=O)C(C)(C)[C@@H]5CC[C@]43C)[C@H]12 [Ursonic acid, reference compound] | 28.8
GQLK (Tetra Peptide) [Sample 27, tetrapeptide] | 56.0
QPSY (Tetra Peptide) [Sample 15, tetrapeptide] | 63.5
PTPQ (Tetra Peptide) [Sample 3, tetrapeptide] | 69.3

Results, then the compound that gave them:

Elastase Inhibition Rate(%) | Compound
59.0 | TQTS (Tetra Peptide) [Sample 13, tetrapeptide]
78.2 | LELP (Tetra Peptide) [Sample 26, tetrapeptide]
66.3 | VKTS (Tetra Peptide) [Sample 6, tetrapeptide]
60.7 | VLLP (Tetra Peptide) [Sample 39, tetrapeptide]
44.5 | KTSG (Tetra Peptide) [Sample 7, tetrapeptide]
33.9 | GQVS (Tetra Peptide) [Sample 10, tetrapeptide]
118.4 | DCVK (Tetra Peptide) [Sample 5, tetrapeptide]
49.6 | SGGS (Tetra Peptide) [Sample 8, tetrapeptide]
69.1 | FSSG (Tetra Peptide) [Sample 22, tetrapeptide]
64.2 | EQQE [37] (Tetra Peptide) [Sample 37, tetrapeptide]
47.4 | CFSS (Tetra Peptide) [Sample 21, tetrapeptide]
56.3 | GSGY (Tetra Peptide) [Sample 9, tetrapeptide]
77.2 | CAPQ (Tetra Peptide) [Sample 14, tetrapeptide]
70.6 | LEVP (Tetra Peptide) [Sample 31, tetrapeptide]
53.6 | EQQE [25] (Tetra Peptide) [Sample 25, tetrapeptide]
58.3 | GSSG (Tetra Peptide) [Sample 19, tetrapeptide]
49.5 | EVQW (Tetra Peptide) [Sample 42, tetrapeptide]
60.5 | QLKY (Tetra Peptide) [Sample 35, tetrapeptide]
55.7 | VEHQ (Tetra Peptide) [Sample 40, tetrapeptide]
64.0 | PEEQ (Tetra Peptide) [Sample 32, tetrapeptide]
78.5 | GYVS (Tetra Peptide) [Sample 11, tetrapeptide]
67.1 | YGGG (Tetra Peptide) [Sample 16, tetrapeptide]

— patent US20240279277A1, “PREPARING METHOD OF HIGHLY FUNCTIONAL PEPTIDE DERIVED FROM KERATINOCYTE PROTEIN” (ANPEP INC., priority 2021, published 2024)
